B1: TRIM6 RING domain (residues 1-87), wild type (domain or fragment, human, UniProt Q9C030 1-87, looked up)
chain: MTSPVLVDIREEVTCPICLELLTEPLSIDCGHSFCQACITPNGRESVIGQEGERSCPVCQTSYQPGNLRPNRHLANIVRRLREVVLG
notes: TRIM6, human, RING domain, residues 1-87; Forms dimers in solution by SEC-MALLS; The His6 tag is HRV 3C cleavable; also called TRIM6 RING WT; source: E. coli BL21, purified (Ni-NTA, size-exclusion chromatography)
B2: TRIM22 RING domain (residues 1-87), wild type (domain or fragment, human, UniProt Q8IYM9 1-87, looked up)
chain: MDFSVKVDIEKEVTCPICLELLTEPLSLDCGHSFCQACITAKIKESVIISRGESSCPVCQTRFQPGNLRPNRHLANIVERVKEVKMS
notes: TRIM22, human, RING domain, residues 1-87; Monomer-dimer equilibrium by SEC-MALLS; The His6 tag is HRV 3C cleavable; also called TRIM22 RING WT; source: E. coli BL21, purified (Ni-NTA, size-exclusion chromatography)

Target: the molecule itself
Assay: SEC-MALS; SEC-MALLS; Superdex 200 Increase 10/300; 120 µl sample at 1–6 mg/ml; 50 mM HEPES pH 7.5, 150 mM NaCl, 0.5 mM TCEP, 3 mM NaN3; 0.5 ml/min

Row | Protein | stoichiometry N
1 | B1 | 2
2 | B2 | 2

From paper PMC11992055, “Identification of RING E3 pseudoligases in the TRIM protein family” (Nature Communications, 2025)
